Measurements as given in patent US20190177416A1 (NANOMAB TECHNOLOGY, published 2019).

Target: T1, human PD-L1 protein (coated antigen) (human, UniProt Q9NZQ7 19-238, limits assumed)
T1 construct: Construct not described; also called PD-L1 antigen; antigenic protein PD-L1
Assay: PE-ELISA, crude extract on coated PD-L1
Protocol: (1) From the cell culture dishes containing phage after 3-4 rounds of screening in Example 2, 1000 individual colonies were selected and inoculated into TB medium containing 100 μg/ml of ampicillin (1 liter of TB medium contains 2.3 g of potassium dihydrogen phosphate, 12.52 g of dipotassium hydrogen phosphate, 12 g of peptone, 24 g of yeast extract, 4 ml of glycerol), after growth to log phase, add a final concentration of […] of IPTG, culture at 28° C. overnight. (2) The crude antibody was obtained by the infiltration method, and the antibody was transferred to an antigen-coated ELISA plate and placed at room temperature for 1 hour. (3) Unbound antibody was washed away with PBST, and a mouse anti-HA tag antibody (anti-mouse anti-HA antibody, purchased from Beijing Kangwei Century Biotechnology Co., Ltd.) was added and placed at room temperature for 1 hour. (4) Unbound antibody was washed away with PBST, and anti-mouse alkaline phosphatase conjugate (goat anti-mouse alkaline phosphatase-labeled antibody, purchased from Amytech Co., Ltd.) was added and placed at room temperature for 1 hour. (5) Wash the unbound antibody with PBST, add alkaline phosphatase coloring solution, and read the absorbance at 405 nm on an ELISA apparatus. (6) When the OD value of the sample well is more than 3 times the OD value of the control well (Ratio+/−>3), it is judged as a positive clone hole. (7) The bacteria of the positive clone well were shaken in a LB liquid containing 100 μg per ml to extract a plasmid and perform sequencing.

T1 sequence (Q9NZQ7 19-238 limits assumed): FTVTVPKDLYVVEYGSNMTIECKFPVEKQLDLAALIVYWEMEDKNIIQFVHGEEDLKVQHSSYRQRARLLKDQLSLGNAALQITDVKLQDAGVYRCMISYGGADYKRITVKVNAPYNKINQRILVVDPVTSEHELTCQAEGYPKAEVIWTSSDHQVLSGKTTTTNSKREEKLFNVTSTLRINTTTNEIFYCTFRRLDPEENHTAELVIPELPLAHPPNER

Binder	OD ratio (experimental group (A405 nm)/control group (A405 nm))
SEQ ID NO 19 (VHH, pMECS-expressed; also called VHH numbered 19) VHH: QVQLQESGGGSVQTGGSLRLSCAASTSIYSNNYMAWFSQAPGKGREGVAAVYIGDGRPYYADSVKGRFTISLDSAKNTVYLQMNSLKPEDTAMYYCAAAPGPLSRNYWYTSANYDYWGQGTQVTVSS	> 20
SEQ ID NO 40 (VHH, pMECS-expressed; also called VHH numbered 40) VHH: QVQLQESGGGSVQTGGSLRLSCAASTSIYSNNYMAWFSQAPGKGREGVAALYIGDGRPYYADSVKGRFTIALDSAKNTVYLQMNGLKPEDTAMYYCAAAPGPLKHNYWYTSANYDYWGQGTQVTVSS	> 20
SEQ ID NO 25 (VHH, pMECS-expressed; also called VHH numbered 25) VHH: QVQLQESGGGSVQTGGSLRLSCTASTSIYSNNYMAWFSQAPGKGREGVAAVYIGDGRPYYADSVKGRFTISLDSAKNTVYLQMNSLKPEDTAMYYCAAAPGPLSHNYWYTSANYDYWGQGTQVTVSS	> 20
SEQ ID NO 37 (VHH, pMECS-expressed; also called VHH numbered 37) VHH: QVQLQESGGGSVQTGGSLRLSCAASTSIYSINYMAWFRQAPGKGREGVAAVYIDDGRPYYADSVKGRFTISLDSAKNTVYLQMTSLKSEDTAMYYCAAAPGPLSRSYWYTSANYDYWGQGTQVTVSS	> 20
SEQ ID NO 15 (VHH, pMECS-expressed; also called VHH numbered 15) VHH: QVQLQESGGGSVQTGGSLRLSCAASTSIYSNNYMAWFSQAPGKGREGVAAVYIDDGRTYYADSVKGRFTISLDSAKNTVYLQMNSLKPEDTAMYYCAAAPGPLSYNYWYTSANYDYWGQGTQVTVSS	> 20
SEQ ID NO 28 (VHH, pMECS-expressed; also called VHH numbered 28) VHH: QVQLQESGGGSVQTGGSLRLSCAASTSIYSNNYMAWFRQAPGKGREGVAAVYIDDGRPYYADSVKGRFTISLDSAKNTVYLQMNSLKPEDTAMYYCAAAPGPLSRHYWYTSANYDYWGPGTQVTVSS	> 20
SEQ ID NO 29 (VHH, pMECS-expressed; also called VHH numbered 29) VHH: QVQLQESGGGSVRTGGSLRLSCAASPSIYSNNYMAWFSQAPGKGREGVAAVYIDDGRPYYADSVKGRFTISLDSAKNTVYLQMNSLKPEDTAMYYCAAAPGPLSRNYWYTSANYDYWGQGTQVTVSS	> 20
SEQ ID NO 26 (VHH, pMECS-expressed; also called VHH numbered 26) VHH: QVQLQESGGGSVQTGGSLRLSCAASTSIYNNNYMAWFSQAPGKEREGVAAVYIGDGRPYYADSVKGRFTISLDSAKNTVYLQMNSLKPEDTAMYYCAAAPGPLSRNYWYTSANYDYWGQGTQVTVSS	> 20
SEQ ID NO 41 (VHH, pMECS-expressed; also called VHH numbered 41) VHH: QVQLQESGGGSVQTGGSLRLSCAASTSIYSNNYMAWFRQAPGKGREGVAAVYIGDGRPYYADSAKGRFTISLDSAKNTVYLQMNSLKPEDTAMYYCAAAPGPLSRHYWYTSANYDYWGPGTQVTVSS	> 20
SEQ ID NO 21 (VHH, pMECS-expressed; also called VHH numbered 21) VHH: QVQLQESGGGSVQTGGSLRLSCAASTSIYSLNYMAWFSQAPGKGREGVAAVYIGDGRPYYADSVKGRFTISLDSAKNTVYLQMNSLKSEDTAMYYCAAAPGPLSRHYWYTSANYDYWGQGTQVTVSS	> 20
SEQ ID NO 35 (VHH, pMECS-expressed; also called VHH numbered 35) VHH: QVQLQESGGGSVQTGGSLRLSCTASTSIYSNNYMAWFSQAPGKGREGVAAVYIDDGRPYYADSVKGRFTISLDSAKNTVYLQMNSLKPEDTAMYYCAAAPGPLSRNYWYTSANYDYWGQGTQVTVSS	> 20
SEQ ID NO 13 (VHH, pMECS-expressed; also called VHH numbered 13) VHH: QVQLQESGGGSVQTGGSLRLSCAASTSIYSNNYMAWFSQNPGKGREGVAAVYIGDGRPYYADSVKGRFTISLDSAKNTVYLQMNSLKPEDTAMYYCAAAPGPLSRNYWYTSANYDYWGQGTQVTVSS	> 20
SEQ ID NO 36 (VHH, pMECS-expressed; also called VHH numbered 36) VHH: QVQLQESGGGSVQTGGSLRLSCAASTSLYSYNYMAWFSQAPGKGREGVAAVYVGDGRPYYAASVKGRFTISLDSAKNTVYLQMNSLKPEDTAMYYCAAAPGPLSHNYWYTSANYDYWGQGTQVTVSS	> 20
SEQ ID NO 14 (VHH, pMECS-expressed; also called VHH numbered 14) VHH: QVQLQESGGGSVQTGGSLRLSCAASTSIYSNNYMAWFSQAPGKGREGVAAVYIDDGRPYYADSVKGRFTISLDSAKNTVYLQVNSLKPEDTAMYYCAAAPGPLSRNYWYTSANYDYWGQGTQVTVSS	> 20
SEQ ID NO 33 (VHH, pMECS-expressed; also called VHH numbered 33) VHH: QVQLQESGGGSVQTGGSLRLSCACSTSIYSNNYMAWFSQAPGKGREGVAAVYIGDGRPYYADSVKGRFTISLDSAKNTMYLQMNSLKPEDTAMYYCAAAPGPLSQHYWYTSANYDYWGQGTQVTVSS	> 20
SEQ ID NO 24 (VHH, pMECS-expressed; also called VHH numbered 24) VHH: QVQLQESGGGSVQTGGSLRLSCTASTSIYSNNYMAWFSQSPGKGREGVAAVYMDDGRPYYADSVKGRFTISLDSAKNTMYLQMNSLKPEDTAMYYCAAAPGPLSRNYWYTSANYDYWGQGTQVTVSS	> 20

Further lines, results first:

OD ratio (experimental group (A405 nm)/control group (A405 nm))	Binder
> 20	SEQ ID NO 17 (VHH, pMECS-expressed; also called VHH numbered 17) VHH: QVQLQESGGGSVQTGGSLRLSCAASTSIYSLNYMAWFSQAPGKGREGVAAVYIDDGRPYYADHVKGRFTISLDTAKNTVYLQMNSLKPEDTAMYYCAAAPGPLSRNYWYTSANYDYWGQGTQVTVSS
> 20	SEQ ID NO 38 (VHH, pMECS-expressed; also called VHH numbered 38) VHH: QVQLQESGGGSVQTGGSLRLSCAASTSIYSNNYMAWFSQAPGKGREGVAAVYIGDGRPYYADSAKGRFTISLDSAKNTVYLQMNSLKPEDTAMYYCAAAPGPLSRNYWYTSANYDYWGQGTQVTVSS
> 20	SEQ ID NO 32 (VHH, pMECS-expressed; also called VHH numbered 32) VHH: QVQLQESGGGSVQTGGSLRLSCAASTSIYSINYMAWFSQAPGKGREGVAAVYIGDGRPYYADSVKGRFTISLDSAKNTVYLQMNSLKPEDTAMYYCAAAPGPLSQHYWYTSANYDYWGQGTQVTVSS
> 20	SEQ ID NO 23 (VHH, pMECS-expressed; also called VHH numbered 23) VHH: QVQLQESGGGSVQTGGSLRLSCAASTSLYSYNYMAWFSQAPGKGREGVAAVYVGDGRPYYADSVKGRFTISLDSAKNTVYLQMNSLKPEDTAMYYCAAAPGPLSHNYWYTSANYDYWGQGTQVTVSS
> 20	SEQ ID NO 22 (VHH, pMECS-expressed; also called VHH numbered 22) VHH: QVQLQESGGGSVQTGGSLRLSCAASTSIYSNNYMAWFSQAPRKGREGVAAVYIGDGRPYYADSVKGRFTISLDSAKNTVYLQMNSLKPEDTAMYYCAAAPGPLSHNYWYTSANYDYWGQGTQVTVSS
> 20	SEQ ID NO 31 (VHH, pMECS-expressed; also called VHH numbered 31) VHH: QVQLQESGGGSVQTGGSLRLSCAASTSIYSNNYMAWFRQAPGKGREGVAGVYIGDGRPYYADSVKGRFTISLDSAKNTVYLQMNSLKPEDTAMYYCAAAPGPLSHHYWYTSANYDYWGPGTQVTVSS
> 20	SEQ ID NO 39 (VHH, pMECS-expressed; also called VHH numbered 39) VHH: QVQLQESGGGSVQTGGSLRLSCAASTSIYSNNYMAWFSQAPGKGREGVAALYIGDGRPYYADSVKGRFTIALDSAKNTVYLQMNGLKPEDTAMYYCAAAPGPLKHNYWYTSANYDYWGQGTQVTVSS
> 20	SEQ ID NO 27 (VHH, pMECS-expressed; also called VHH numbered 27) VHH: QVQLQESGGGSVQTGGSLRLSCTASTSIYSNNYMAWFSQSPGKGREGVAAVYMDDGRPYYADSVKGRFTISLDSAKNTMYLQMNSLKPEDTAMYYCAAAPGPLSRNYWYTSANYDYWGQGTQVTVSS
> 20	SEQ ID NO 16 (VHH, pMECS-expressed; also called VHH numbered 16) VHH: QVQLQESGGGSVQTGGSLRLSCAASPSIYSNNYMAWFSQAPGKGREGVAAVYIGDGRPYYADSVKGRFTISLDSAKNTVYLQMNSLKPEDTAMYYCAAAPGPLSRNYWYTSANYDYWGQGTQVTVSS
> 20	SEQ ID NO 30 (VHH, pMECS-expressed; also called VHH numbered 30) VHH: QVQLQESGGGSVQTGGSLRLSCTASTSIYSNNYMAWFSQAPGKGREGVAAVYIDDGRPYYADSVKGRFTISLDSAKNTVYLQMNSLKPEDTAMYYCAAAPGPLSRNYWYTSANYDYWGQGTQVTVSS
